Experimental findings from patent publication US20050132443A1 are described below.

In this assay the target is tobacco ethylene-responsive transcription factor ERF4 (tobacco) (UniProt Q40478). Kind of assay: cell-based or functional assay.
Sequence of tobacco ethylene-responsive transcription factor ERF4 (tobacco) (Q40478 whole entry): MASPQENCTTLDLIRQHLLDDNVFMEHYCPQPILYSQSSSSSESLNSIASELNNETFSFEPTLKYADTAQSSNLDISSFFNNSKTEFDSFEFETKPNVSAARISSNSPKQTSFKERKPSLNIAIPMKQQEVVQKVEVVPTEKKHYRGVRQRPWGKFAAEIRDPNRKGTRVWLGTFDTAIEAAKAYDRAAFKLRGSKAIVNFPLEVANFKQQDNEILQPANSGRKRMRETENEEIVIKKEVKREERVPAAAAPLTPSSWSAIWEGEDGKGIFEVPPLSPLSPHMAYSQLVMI

In turn, “Multiprotein Bridging Factor 1 of Oryza sativa (oMBF1)” registered a GUS activity (pERE-GUS reporter, transient assay in tobacco leaves) of 5.5 fold.
